The supplement of paper PMC7877785
± gives the uncertainty stated by the source.

Assay: self-splicing fitness, log relative to wild type (ln ratio); higher = more splicing; Tetrahymena group I intron in knt gene, E. coli kanamycin selection, DiMSum; sequences stand for … in CUCUCU…GGAGGGAAAAGUUAUCAGGCAUGCACCUGGUAGCUAGUCUUUAAACCAAUAGAUUGCAUCGGUUUAAAAGGCAAGACCGUCAAAUUGCGGGAAAGGGGUCAACAGCCGUUCAGUACCAAGUCUCAGGGGAAACUUUGAGAUGGCCUUGCAAAGGGUAUGGUAAUAAGCUGACGGACAUGGUCCUAACCACGCAGCCAAGUCCUAAGUCAACAGAUCUUCUGUUGAUAUGGAUGCAGUUCACAGACUAAAUGUCGGUCGGGGAAGAUGUAUUCUUCUCAUAAGAUAUAGUCGGACCUCUCCUUAAUGGGAGCUAGCGGAUGAAGUGAUGCAACACUGGAGCCGCUGGGAACUAAUUUGUAUGCGAAAGUAUAUUGAUUAGUUUUGGAGUACUCGUGGUCG
Summary of the method: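 The eight P1ex-region nucleotides of an intron in the knt kanamycin-resistance gene on pET-22b(+) were all randomised and the library put into E. coli BL21(DE3). Six replicate transformations were grown overnight at 37°C or 30°C on LB agar with or without 25 μg/mL kanamycin, together with 100 μg/mL carbenicillin, 50 μM IPTG and 0.2% rhamnose. Colonies were pooled and amplicon-sequenced on an Illumina HiSeq 2500. Fitness from DiMSum is the error-weighted combination of wild-type-normalised replicate fold changes, kanamycin over none.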

| Sequence | self-splicing fitness (ln) (30 °C) | self-splicing fitness (ln) (37 °C) |
| --- | --- | --- |
| UCGCAGCAAUAUUACGUAUA | -1.82 ± 0.11 | -0.691 ± 0.12 |
| GCGUAGCAAUAUUACGUGUU | -3.07 ± 0.21 | -0.761 ± 0.12 |
| UCCGAGCAAUAUUACGCGCA | -0.129 ± 0.15 | -0.252 ± 0.14 |
| GCAAAGCAAUAUUACGAUAU | -1.41 ± 0.075 | 0.42 ± 0.082 |
| UACAAGCAAUAUUACGAUCA | -0.336 ± 0.079 | 0.387 ± 0.11 |
| AACUAGCAAUAUUACGAGGU | -3.14 ± 0.3 | -2.01 ± 0.25 |
| UCGGAGCAAUAUUACGGCGC | -2.09 ± 0.31 | – |
| ACCCAGCAAUAUUACGGUUG | -3.66 ± 0.18 | -2.3 ± 0.19 |
| ACCAAGCAAUAUUACGGAUA | -2.56 ± 0.14 | -1.56 ± 0.12 |
| CGUAAGCAAUAUUACGGAUC | -3.4 ± 0.23 | -3.44 ± 0.37 |
| UUGCAGCAAUAUUACGCGUU | -2.41 ± 0.21 | -1.94 ± 0.18 |
| CCGGAGCAAUAUUACGCCAU | – | -2.18 ± 0.35 |
| AUUCAGCAAUAUUACGUGUG | -1.9 ± 0.062 | -0.699 ± 0.067 |
| CACCAGCAAUAUUACGAGGG | -2.81 ± 0.088 | -1.79 ± 0.093 |
| GGUGAGCAAUAUUACGCUAU | -1.77 ± 0.32 | -2.94 ± 0.4 |
| UCUUAGCAAUAUUACGAGAG | -2.35 ± 0.26 | -0.861 ± 0.16 |
| ACCCAGCAAUAUUACGGACU | -0.261 ± 0.044 | 0.0991 ± 0.059 |
| UAAAAGCAAUAUUACGGCGC | -1.64 ± 0.12 | -0.483 ± 0.13 |
| AUAGAGCAAUAUUACGUCCG | -2.71 ± 0.23 | -3.65 ± 0.34 |
| GCCAAGCAAUAUUACGUUAU | -2.76 ± 0.14 | -0.784 ± 0.1 |
| UCGCAGCAAUAUUACGUGAA | -1.32 ± 0.078 | -0.713 ± 0.086 |
| AUGCAGCAAUAUUACGCGUU | -2.4 ± 0.088 | -2.7 ± 0.19 |
| GUAGAGCAAUAUUACGCGAU | -3.22 ± 0.2 | 0.14 ± 0.16 |
| UUGUAGCAAUAUUACGUACA | -1.51 ± 0.2 | -0.822 ± 0.17 |
| CGUAAGCAAUAUUACGGCCA | -2.86 ± 0.42 | -1.74 ± 0.21 |

| Sequence | self-splicing fitness (ln) (30 °C) | self-splicing fitness (ln) (37 °C) |
| --- | --- | --- |
| GAGGAGCAAUAUUACGAAUG | – | -1.7 ± 0.43 |
| CCAGAGCAAUAUUACGAUCC | – | -1.91 ± 0.38 |
| GAAAAGCAAUAUUACGUAAA | -2.4 ± 0.13 | -0.992 ± 0.14 |
| CGGCAGCAAUAUUACGAGUG | -1.03 ± 0.086 | 0.319 ± 0.1 |
| CUAGAGCAAUAUUACGGGGU | – | -2.6 ± 0.3 |
| GCGUAGCAAUAUUACGCGCC | -2.51 ± 0.35 | -1.51 ± 0.45 |
| CGCCAGCAAUAUUACGUAGG | -2.47 ± 0.085 | -1.32 ± 0.1 |
| UAAAAGCAAUAUUACGUCAC | -3 ± 0.2 | -2.25 ± 0.28 |
| AUUUAGCAAUAUUACGCGCC | -0.641 ± 0.26 | -0.828 ± 0.34 |
| CAACAGCAAUAUUACGAGUU | -2.6 ± 0.096 | -2.09 ± 0.13 |
| CAUGAGCAAUAUUACGACGU | -4.25 ± 0.39 | -0.969 ± 0.2 |
| CCGCAGCAAUAUUACGAGAU | -4.09 ± 0.42 | -2.2 ± 0.19 |
| GCCAAGCAAUAUUACGGUCU | -2.26 ± 0.12 | -0.79 ± 0.12 |
| UCAGAGCAAUAUUACGCAAC | -3.8 ± 0.48 | -1.91 ± 0.29 |
| CUCCAGCAAUAUUACGGAGU | -4.09 ± 0.31 | -1.28 ± 0.19 |
| CAAAAGCAAUAUUACGCUCG | -1.25 ± 0.12 | -0.455 ± 0.12 |
| AUAAAGCAAUAUUACGCAUU | -1.82 ± 0.086 | -0.523 ± 0.11 |
| CAAGAGCAAUAUUACGGUGC | -3.03 ± 0.31 | -2.09 ± 0.35 |
| CCUUAGCAAUAUUACGCCAA | -2.7 ± 0.34 | -0.755 ± 0.31 |
| CGCCAGCAAUAUUACGGAUC | -1.24 ± 0.22 | -1.38 ± 0.47 |
| AUAGAGCAAUAUUACGAACA | -1.9 ± 0.16 | -1.09 ± 0.25 |
| ACUAAGCAAUAUUACGCCUU | -1.09 ± 0.082 | -0.381 ± 0.11 |
| ACGGAGCAAUAUUACGGCCG | -1.98 ± 0.16 | -2.03 ± 0.28 |
| CUCAAGCAAUAUUACGAGUU | -3.34 ± 0.15 | -2.52 ± 0.15 |
| UUCUAGCAAUAUUACGAACA | – | -0.35 ± 0.37 |
